The results in this text go back to patent publication US12319742 (SHATTUCK LABS, dated 2025).

For assay [1], the target named is FcγR1 (CD64), BLI reagent (UniProt P12314 16-288, limits assumed). The assay is described as follows: BLI; antibody as analyte at 300 nM on FcγR1. For orientation: Biolayer interferometry detects binding as a change in optical thickness at a sensor tip.
The target in assay [2] is T1, biotinylated recombinant human FcRn-His tagged protein (Acro #FCM-H82W7) (human, UniProt P55899 24-297; P61769 21-119, biotinylated).
T1 construct: also called hFcRn; neonatal Fc receptor
T1 sequence (P55899 24-297 limits assumed, chain 1 of 2): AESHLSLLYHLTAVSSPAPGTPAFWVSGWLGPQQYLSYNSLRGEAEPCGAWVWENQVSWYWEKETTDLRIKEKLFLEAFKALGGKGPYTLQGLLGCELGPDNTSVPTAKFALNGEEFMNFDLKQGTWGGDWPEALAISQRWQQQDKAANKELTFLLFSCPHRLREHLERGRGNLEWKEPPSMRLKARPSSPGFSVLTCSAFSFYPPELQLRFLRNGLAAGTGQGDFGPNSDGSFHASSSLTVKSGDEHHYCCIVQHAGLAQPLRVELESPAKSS
T1 sequence (P61769 21-119 limits assumed, chain 2 of 2): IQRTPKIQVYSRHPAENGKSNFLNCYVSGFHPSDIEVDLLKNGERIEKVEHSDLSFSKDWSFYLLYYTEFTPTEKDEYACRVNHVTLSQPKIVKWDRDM
The experiment in a line: BLI/Octet; biotinylated human FcRn-His on streptavidin biosensor; pH 7.4; pH 7.4. On the procedure: (§1) Figure 5D: FIG. 5D. FcRn binding kinetics by anti-TNFRSF25 antibodies. BLI assay was performed using the Octet Red 96e instrument. Streptavidin biosensors were loaded with biotinylated recombinant human(h) FcRn-His tagged protein (Acro #FCM-H82W7) as the ligand. During the association phase, biosensors were incubated with anti-DR3 candidate antibodies at various concentrations for 600 seconds, followed by a 600-second dissociation phase.
(§2) To detect binding of certain whole antibodies to the neonatal Fc receptor (FcRn) at neutral and acidic pH conditions, streptavidin biosensors were loaded with biotinylated recombinant human FcRn-His tagged protein (Acro #FCM-H82W7) as the ligand. During the association phase, biosensors were incubated with anti-TNFRSF25 antibodies at various concentrations for 600 seconds, followed by a 600 second dissociation phase.

For assay [3], the target named is T1, biotinylated recombinant human FcRn-His …. The assay is described as follows: BLI/Octet; biotinylated human FcRn-His on streptavidin biosensor; pH 6.0. On the procedure: as §1, §2
For assay [4] the target is unchanged. The assay is described as follows: BLI/Octet; biotinylated human FcRn-His on streptavidin biosensor; pH 7.4. On the procedure:
as §1, §2

A further assay deals with T2, TNFR2 (recombinant) (UniProt P20333 23-257, limits assumed).
T2 sequence (looked up): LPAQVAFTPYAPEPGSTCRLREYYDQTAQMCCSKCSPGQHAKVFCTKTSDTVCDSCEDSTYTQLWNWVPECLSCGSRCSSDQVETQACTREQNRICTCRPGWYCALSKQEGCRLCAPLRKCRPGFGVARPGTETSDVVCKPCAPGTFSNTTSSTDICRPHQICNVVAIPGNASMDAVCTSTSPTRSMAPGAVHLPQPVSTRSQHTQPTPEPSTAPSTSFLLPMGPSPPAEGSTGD
The experiment in a line: MSD plate binding; human TNFR2 protein immobilized on the plate, sulfo-tag anti-human Fc.

Assay [5] deals with T3, DcR3 (decoy receptor, recombinant) (UniProt O95407 30-300).
T3 construct: also called decoy Receptor, DcR3
T3 sequence (looked up): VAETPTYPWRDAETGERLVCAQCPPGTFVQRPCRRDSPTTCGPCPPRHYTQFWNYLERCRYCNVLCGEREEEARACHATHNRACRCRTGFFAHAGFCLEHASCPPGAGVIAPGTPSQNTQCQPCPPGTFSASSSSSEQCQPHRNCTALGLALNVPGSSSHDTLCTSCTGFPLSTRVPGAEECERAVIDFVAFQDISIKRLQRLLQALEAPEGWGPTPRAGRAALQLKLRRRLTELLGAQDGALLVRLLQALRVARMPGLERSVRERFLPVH
The assay is described as follows: MSD plate binding; human DcR3 protein immobilized on the plate, sulfo-tag anti-human Fc.

Assay [6] deals with T4, biotinylated recombinant human TNFRSF25-His tagged (Acro #TN5-H52H3) (human, UniProt Q93038 25-199, biotinylated).
T4 construct: treated as the same protein; also called recombinant biotin-conjugated human TNFRSF25 protein; DR3
T4 sequence (looked up): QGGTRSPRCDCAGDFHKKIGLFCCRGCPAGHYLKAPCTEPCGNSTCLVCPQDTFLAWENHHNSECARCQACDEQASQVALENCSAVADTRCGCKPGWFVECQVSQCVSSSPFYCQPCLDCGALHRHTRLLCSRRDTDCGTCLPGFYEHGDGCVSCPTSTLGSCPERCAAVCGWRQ
The experiment in a line: MSD competition; TNFRSF25 on plate, antibody titrated, then TL1A-rabbit Fc 0.4 µg/ml as competitor. On the procedure:
Figure 6: FIG. 6. […] Human TNFRSF25 was precoated on MSD assay plates followed by incubating with various concentrations of anti-TNFRSF25 antibodies.

For assay [7], the target named is T4, biotinylated recombinant human …. The experiment in a line: BLI/Octet; biotinylated TNFRSF25 on streptavidin sensor, mAb in solution; 1:1 Langmuir model. The source says:
Provided herein are monoclonal and biparatopic antibodies that specifically target human TNFRSF25. The monoclonal antibodies were produced in an engineered CHOK1 cell-line by transfecting the cells with vectors genetically encoding the Heavy and Light chain antibody sequences followed by a single-step affinity-capture chromatography using FcXL resins. The final monoclonal antibody preparation was buffer exchanged into PBS, pH 7.4. Production of biparatopic antibodies followed a two-step process. In the first step of the process, the so called Knob-half (or Hole-half) antibody was produced by transfecting an engineered CHOK1 cell-line with vectors genetically encoding the Knob (or the Hole) Heavy chain and the corresponding Light chain sequences. The CHOK1-cell-harvest from the Knob-half antibody and Hole half-antibody was then purified by Protein A column-based chromatography. In the second step of the process, the two half-antibodies were reassembled into the desired biparatopic format by the use of a mild reduction step followed by quenching the reaction with buffer exchange into PBS, pH 7.4. To detect binding of the antibodies to human TNFRSF25, recombinant biotin-conjugated human TNFRSF25 protein was immobilized onto a streptavidin-coated MSD (Meso Scale Discovery) plate and allowed to bind the anti-TNFRSF25 mAbs in solution. Following a washing step, the bound antibodies were detected using a sulfo-tagged anti-human Fc antibody. The results of these MSD assays are shown in arbitrary units (au) on the y-axis of FIG. 1. To determine the binding affinity of the antibodies to recombinant human TNFRSF25 protein, recombinant biotin-conjugated human TNFRSF25 protein was immobilized onto a streptavidin-coated BLI sensor and allowed to bind the anti-TNFRSF25 mAbs in solution phase. The binding affinity (K_D) was calculated using the on-rates (Ka) and off-rates (Kd) of mAb binding to the target using a 1:1 Langmuir binding model in the ForteBio data analysis software.

Assay [8] has the same target. The assay is described as follows: BLI/Octet Red 96e; biotinylated TNFRSF25-His on streptavidin biosensor; 600 s association, 600 s dissociation. As to the method: Figure 4: FIG. 4. TNFRSF25 binding affinity of anti-TNFRSF25 antibodies. BLI assay was performed using the Octet Red 96e instrument. Streptavidin biosensors were loaded with biotinylated recombinant human TNFRSF25-His tagged (Acro #TN5-H52H3) as the ligand. During the association phase, biosensors were incubated with anti-TNFRSF25 antibodies at various concentrations for 600 seconds, followed by a 600-second dissociation phase.
To detect binding of certain whole antibodies to human TNFRSF25, streptavidin biosensors were loaded with biotinylated recombinant human TNFRSF25-His tagged (Acro #TN5-H52H3) as the ligand. During the association phase, biosensors were incubated with anti-TNFRSF25 antibodies at various concentrations for 600 seconds, followed by a 600 second dissociation phase.

For the next assay, the target named is T5, TNFR1 (recombinant) (UniProt P19438 30-211, limits assumed).
T5 sequence (looked up): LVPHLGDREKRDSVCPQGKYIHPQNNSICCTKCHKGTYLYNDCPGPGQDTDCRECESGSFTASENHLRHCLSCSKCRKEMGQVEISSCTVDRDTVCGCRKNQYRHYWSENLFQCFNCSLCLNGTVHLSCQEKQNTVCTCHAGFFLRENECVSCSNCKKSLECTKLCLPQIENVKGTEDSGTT
The experiment in a line: MSD plate binding; human TNFR1 protein immobilized on the plate, sulfo-tag anti-human Fc.

Assay [9] addresses T4, biotinylated recombinant human …. The experiment in a line: BLI/Octet; biotinylated TNFRSF25 on streptavidin sensor, antibody in solution; 1:1 Langmuir model.

FcγR1 (CD64), BLI reagent, sequence (P12314 16-288 limits assumed): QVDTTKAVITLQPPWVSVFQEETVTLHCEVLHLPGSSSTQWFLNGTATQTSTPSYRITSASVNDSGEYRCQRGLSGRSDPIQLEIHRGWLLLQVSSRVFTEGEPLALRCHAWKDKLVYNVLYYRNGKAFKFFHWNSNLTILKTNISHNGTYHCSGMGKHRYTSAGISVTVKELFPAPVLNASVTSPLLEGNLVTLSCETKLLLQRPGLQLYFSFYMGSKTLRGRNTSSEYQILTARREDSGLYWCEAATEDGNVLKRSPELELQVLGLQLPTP

B1: SL-062 (antibody, human IgG1, kappa)
heavy: not shown
light: AIQLTQSPSSLSASVGDRVTITCRASPGISSALAWYQQKPGKAPKLLMYDESSQESGVPSRFSGSGSGTDFTLTISSLQPEDFATYYCQQFNDYPLTFGGGTKVEIKRTVAAPSVFIFPPSDEQLKSGTASVVCLLNNFYPREAKVQWKVDNALQSGNSQESVTEQDSKDSTYSLSSTLTLSKADYEKHKVYACEVTHQGLSSPVTKSFNRGEC
notes: Same variable regions as SL-033 with wild-type IgG1 Fc; also called clone 062
Regarding B1, in assay [1], the binding result is “binds”. Further, the koff (as a rule, the first-order rate constant of dissociation) in assay [2] is 0.00124 s⁻¹. In addition, in assay [3], the Kd – broadly, the constant that tells how readily two partners part at equilibrium – was 3.93 nM; the koff stood at 0.000715 s⁻¹; the kon (in general, the rate constant with which the complex forms) came to 182000 M⁻¹ s⁻¹. In [4], the Kd was 6.54 nM and the on-rate (kon) amounted to 190000 M⁻¹ s⁻¹.

B2: SL-033 (antibody, human IgG1, kappa, L234A L235A)
heavy: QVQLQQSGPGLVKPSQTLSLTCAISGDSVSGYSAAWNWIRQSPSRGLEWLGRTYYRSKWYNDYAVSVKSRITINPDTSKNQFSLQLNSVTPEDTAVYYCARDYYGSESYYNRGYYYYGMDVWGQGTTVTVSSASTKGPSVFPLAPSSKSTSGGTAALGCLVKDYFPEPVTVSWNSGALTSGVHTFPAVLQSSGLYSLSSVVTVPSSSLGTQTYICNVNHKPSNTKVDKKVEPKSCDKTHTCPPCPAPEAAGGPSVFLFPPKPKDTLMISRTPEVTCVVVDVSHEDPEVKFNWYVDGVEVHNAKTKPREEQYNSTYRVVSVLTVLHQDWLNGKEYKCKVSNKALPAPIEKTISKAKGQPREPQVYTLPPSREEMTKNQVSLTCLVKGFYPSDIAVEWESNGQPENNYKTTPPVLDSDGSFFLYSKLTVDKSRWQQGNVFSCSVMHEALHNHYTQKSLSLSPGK
light: AIQLTQSPSSLSASVGDRVTITCRASPGISSALAWYQQKPGKAPKLLMYDESSQESGVPSRFSGSGSGTDFTLTISSLQPEDFATYYCQQFNDYPLTFGGGTKVEIKRTVAAPSVFIFPPSDEQLKSGTASVVCLLNNFYPREAKVQWKVDNALQSGNSQESVTEQDSKDSTYSLSSTLTLSKADYEKHKVYACEVTHQGLSSPVTKSFNRGEC
notes: Anti-TNFRSF25 IgG1 with Fc-silencing L234A/L235A; also called clone 033; SL-033 (L234A/L235A)
For the molecule B2, the binding result was “no binding (tested: about 200 nM (log nM about 2.3))” in the assay with TNFR2 (recombinant), “binds” in assay [1], “no binding (tested: about 200 nM (log nM about 2.3))” in assay [5] and “no binding (tested: about 200 nM (log nM about 2.3))” in the assay with TNFR1 (recombinant). Further, the IC50 (commonly the concentration needed to halve the response being measured) in [6] is 0.07 nM. Besides, in assay [7], the Kd was less than 1 nM. In assay [8], the “Response (RU)” value was 2.19 RU. Also, the koff in [8] was less than 1e-07 s⁻¹. For the same molecule, the kon in [8] came out at 243000 M⁻¹ s⁻¹.

B3: 033_NH24 biparatopic antibody (bispecific antibody, human IgG1, kappa, L234A L235A)
heavy 1: not shown
light 1: AIQLTQSPSSLSASVGDRVTITCRASPGISSALAWYQQKPGKAPKLLMYDESSQESGVPSRFSGSGSGTDFTLTISSLQPEDFATYYCQQFNDYPLTFGGGTKVEIKRTVAAPSVFIFPPSDEQLKSGTASVVCLLNNFYPREAKVQWKVDNALQSGNSQESVTEQDSKDSTYSLSSTLTLSKADYEKHKVYACEVTHQGLSSPVTKSFNRGEC
heavy 2: EVQLVESGGGSVQPGGSLRLSCAASGFTFSSYGMSWIRQAPGKGLEWISYISSSGGHTYYADSVKGRFTISRDNAKNSLYLQMNSLRAEDTAVYYCARGSGSFDYWGQGTLVTVSSASTKGPSVFPLAPSSKSTSGGTAALGCLVKDYFPEPVTVSWNSGALTSGVHTFPAVLQSSGLYSLSSVVTVPSSSLGTQTYICNVNHKPSNTKVDKKVEPKSCDKTHTCPPCPAPEAAGGPSVFLFPPKPKDTLMISRTPEVTCVVVDVSHEDPEVKFNWYVDGVEVHNAKTKPREEQYNSTYRVVSVLTVLHQDWLNGKEYKCKVSNKALPAPIEKTISKAKGQPREPQVCTLPPSREEMTKNQVSLSCAVKGFYPSDIAVEWESNGQPENNYKTTPPVLDSDGSFFLVSKLTVDKSRWQQGNVFSCSVMHEALHNHYTQKSLSLSPGK
light 2: not shown
For B3, the equilibrium dissociation constant (Kd) in [9] is 0.14 nM.
